Measurements published in patent US20240116985A1 (published 2024).
Starred links: 1 amine or outer side, 2 acyl side, 3 side chain; linkers in the order of their positions; H or OH if unused. Positions of bridges follow the written chain, without caps; N, C: chain ends. Non-standard residues stand in square brackets, D forms with d. Primed or numbered codes have the meaning given here. PyrS2 = (S)-3-amino-1-((pent-4-en-1-yloxy)carbonyl)pyrrolidine-3-carboxylic acid, C=CCCCOC(=O)N1CC[C@@](N[*:1])(C(=O)[*:2])C1; PyrS3 = (S)-3-amino-1-((hex-5-en-1-yloxy)carbonyl)pyrrolidine-3-carboxylic acid, C=CCCCCOC(=O)N1CC[C@@](N[*:1])(C(=O)[*:2])C1; B5(13) = 2-amino-2-(pent-4-en-1-yl)hept-6-enoic acid (two alkene chains), C=CCCCC(CCCC=C)(N[*:1])C(=O)[*:2]; B5(3) = 2,2-bis(4-pentenyl)glycine (stitching residue), C=CCCCC(CCCC=C)(N[*:1])C(=O)[*:2]; Phe(2-Cl) = N[C@@H](Cc1ccccc1Cl)C(=O)O; Phe(2-OMe) = COc1ccccc1C[C@H](N)C(=O)O; 1Nal = N[C@@H](Cc1cccc2ccccc12)C(=O)O; 2Nal = N[C@@H](Cc1ccc2ccccc2c1)C(=O)O; Phe(2-Me) = Cc1ccccc1C[C@H](N)C(=O)O; Bta = N[C@@H](Cc1csc2ccccc12)C(=O)O; αAllylPro = C=CC[C@@]1(C(=O)O)CCCN1; tBuAla = CC(C)(C)C[C@H](N)C(=O)O; 2Thi = N[C@@H](Cc1cccs1)C(=O)O; 3Thi = N[C@@H](Cc1ccsc1)C(=O)O; hLeu = CC(C)CC[C@H](N)C(=O)O

T1: B-cat-Halo (UniProt P35222 1-781)
T1 sequence (looked up): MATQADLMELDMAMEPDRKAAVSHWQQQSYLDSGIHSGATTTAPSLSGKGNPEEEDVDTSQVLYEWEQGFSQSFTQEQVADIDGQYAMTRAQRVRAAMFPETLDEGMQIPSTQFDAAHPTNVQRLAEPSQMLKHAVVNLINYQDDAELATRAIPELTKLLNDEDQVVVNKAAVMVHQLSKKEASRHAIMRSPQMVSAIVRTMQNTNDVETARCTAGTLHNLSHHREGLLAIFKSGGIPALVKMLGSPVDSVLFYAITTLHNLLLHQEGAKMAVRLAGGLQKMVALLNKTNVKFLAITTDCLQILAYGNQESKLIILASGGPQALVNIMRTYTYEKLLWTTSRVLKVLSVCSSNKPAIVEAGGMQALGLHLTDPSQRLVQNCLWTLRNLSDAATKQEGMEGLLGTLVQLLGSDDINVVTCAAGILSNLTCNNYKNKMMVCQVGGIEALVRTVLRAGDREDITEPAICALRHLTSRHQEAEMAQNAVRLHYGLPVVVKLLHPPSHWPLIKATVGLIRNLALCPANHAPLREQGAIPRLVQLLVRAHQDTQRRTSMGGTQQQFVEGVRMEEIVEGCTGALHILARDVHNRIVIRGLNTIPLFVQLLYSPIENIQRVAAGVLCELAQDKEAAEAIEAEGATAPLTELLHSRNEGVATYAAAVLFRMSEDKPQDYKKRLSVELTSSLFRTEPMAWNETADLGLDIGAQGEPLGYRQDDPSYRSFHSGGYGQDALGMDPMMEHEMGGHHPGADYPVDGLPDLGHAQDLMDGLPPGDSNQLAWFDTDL

B1: I-776 (peptide)
peptide: Ac-[αAllylPro]D[tBuAla][B5(13)]DDAAFN[PyrS3][3Thi][Bta]H-NH2
modifications: staple 1-4, 4-11
B2: I-786 (peptide)
peptide: Ac-[αAllylPro]D[tBuAla][B5(3)]DEAAFN[PyrS2][3Thi][Bta]-NH2
modifications: staple 1-4, 4-11
B3: I-778 (peptide)
peptide: Ac-[αAllylPro]D[tBuAla][B5(13)]DDAAFN[PyrS2][2Thi][Bta]Q-NH2
modifications: staple 1-4, 4-11
B4: I-775 (peptide)
peptide: Ac-[αAllylPro]D[tBuAla][B5(13)]DDAAFN[PyrS3][3Thi][Bta]H-NH2
modifications: staple 1-4, 4-11
B5: I-784 (peptide)
peptide: Ac-[αAllylPro]D[tBuAla][B5(3)]DDAAFN[PyrS2][Phe(2-Cl)][Bta]H-NH2
modifications: staple 1-4, 4-11
B6: I-781 (peptide)
peptide: Ac-[αAllylPro]D[tBuAla][B5(13)]DDAAFN[PyrS2][Phe(2-OMe)][Bta]H-NH2
modifications: staple 1-4, 4-11
B7: I-783 (peptide)
peptide: Ac-[αAllylPro]D[tBuAla][B5(13)]DDAAFN[PyrS2][Phe(2-Cl)][Bta]Q-NH2
modifications: staple 1-4, 4-11
B8: I-779 (peptide)
peptide: Ac-[αAllylPro]D[tBuAla][B5(13)]DDAAFN[PyrS2][2Thi][Bta]H-NH2
modifications: staple 1-4, 4-11
B9: I-792 (peptide)
peptide: Ac-[αAllylPro]D[tBuAla][B5(3)]DDAAFN[PyrS2][3Thi]WH-NH2
modifications: staple 1-4, 4-11
B10: I-785 (peptide)
peptide: Ac-[αAllylPro]D[tBuAla][B5(3)]DDAAFN[PyrS2][3Thi][Bta]-NH2
modifications: staple 1-4, 4-11
B11: I-788 (peptide)
peptide: Ac-[αAllylPro]D[hLeu][B5(3)]DDAAFN[PyrS2][3Thi][Bta]H-NH2
modifications: staple 1-4, 4-11
B12: I-777 (peptide)
peptide: Ac-[αAllylPro]D[tBuAla][B5(13)]DDAAFN[PyrS2]F[Bta]H-NH2
modifications: staple 1-4, 4-11
B13: I-782 (peptide)
peptide: Ac-[αAllylPro]D[tBuAla][B5(13)]DDAAFN[PyrS2][Phe(2-Me)][Bta]H-NH2
modifications: staple 1-4, 4-11
B14: I-789 (peptide)
peptide: Ac-[αAllylPro]D[tBuAla][B5(3)]DDAAFN[PyrS2][3Thi][1Nal]H-NH2
modifications: staple 1-4, 4-11
B15: I-790 (peptide)
peptide: Ac-[αAllylPro]D[tBuAla][B5(3)]DDAAFN[PyrS2][3Thi][2Nal]H-NH2
modifications: staple 1-4, 4-11
B16: I-780 (peptide)
peptide: Ac-[αAllylPro]D[tBuAla][B5(13)]DDAAFN[PyrS2][Phe(2-OMe)][Bta]Q-NH2
modifications: staple 1-4, 4-11
B17: I-793 (peptide)
peptide: Ac-[αAllylPro]D[tBuAla][B5(3)]DDAAFN[PyrS2][Bta][Bta]H-NH2
modifications: staple 1-4, 4-11

Molecular target: T1, B-cat-Halo
Test: cell-based or functional assay

Going from B1 to B2, the “NanoBRET Abs IC50” value falls from 45.7 µM to 29.3 µM (1.6-fold).

Going from B3 to B4, the “NanoBRET Abs IC50” value rises from 11.2 µM to greater than 20 µM.

Going from B5 to B6, the “NanoBRET Abs IC50” value rises from 14.5 µM to 31 µM (2.1-fold).

Going from B7 to B8, the “NanoBRET Abs IC50” value rises from 6.2 µM to 18.7 µM (3-fold).

B9 and B10 cannot be ordered by “NanoBRET Abs IC50” value: greater than 20 µM for the first, 21.6 µM for the second.

B11 and B12 are within 1.5-fold of each other in “NanoBRET Abs IC50” value: 21.6 µM for the first, 19.8 µM for the second.

First: B13
Second: B14
The “NanoBRET Abs IC50” value of the first is lower: 12.2 µM for the first, greater than 20 µM for the second.

B15 and B16 cannot be ordered by “NanoBRET Abs IC50” value: greater than 20 µM for the first, 20.7 µM for the second.

With B17 the “NanoBRET Abs IC50” value was greater than 20 µM.
